# Test results from patent publication US20100178280.
# T1: acetylated p53 peptides (p53-382/diAc), P04637
# T1 chain: RHKK
# B1: recombinant mouse Sirt1 protein (protein)
# chain: MADEVALALQAAGSPSAAAAMEAASQPADEPLRKRPRRDGPGLGRSPGEPSAAVAPAAAGCEAASAAAPAALWREAAGAAASAEREAPATAVAGDGDNGSGLRREPRAADDFDDDEGEEEDEAAAAAAAAAIGYRDNLLLTDGLLTNGFHSCESDDDDRTSHASSSDWTPRPRIGPYTFVQQHLMIGTDPRTILKDLLPETIPPPELDDMTLWQIVINILSEPPKRKKRKDINTIEDAVKLLQECKKIIVLTGAGVSVSCGIPDFRSRDGIYARLAVDFPDLPDPQAMFDIEYFRKDPRPFFKFAKEIYPGQFQPSLCHKFIALSDKEGKLLRNYTQNIDTLEQVAGIQRILQCHGSFATASCLICKYKVDCEAVRGDIFNQVVPRCPRCPADEPLAIMKPEIVFFGENLPEQFHRAMKYDKDEVDLLIVIGSSLKVRPVALIPSSIPHEVPQILINREPLPHLHFDVELLGDCDVIINELCHRLGGEYAKLCCNPVKLSEITEKPPRPQKELVHLSELPPTPLHISEDSSSPERTVPQDSSVIATLVDQATNNNVNDLEVSESSCVEEKPQEVQTSRNVENINVENPDFKAVGSSTADKNERTSVAETVRKCWPNRLAKEQISKRLEGNQYLFVPPNRYIFHGAEVYSDSEDDVLSSSSCGSNSDSGTCQSPSLEEPLEDESEIEEFYNGLEDDTERPECAGGSGFGADGGDQEVVNEAIATRQELTDVNYPSDKS
# B2: recombinant mouse Sirt7 protein (protein)
# chain: MAAGGGLSRSERKAAERVRRLREEQQRERLRQVSRILRKAAAERSAEEGRLLAESEDLVTELQGRSRRREGLKRRQEEVCDDPEELRRKVRELAGAVRSARHLVVYTGAGISTAASIPDYRGPNGVWTLLQKGRPVSAADLSEAEPTLTHMSITRLHEQKLVQHVVSQNCDGLHLRSGLPRTAISELHGNMYIEVCTSCIPNREYVRVFDVTERTALHRHLTGRTCHKCGTQLRDTIVHFGERGTLGQPLNWEAATEAASKADTILCLGSSLKVLKKYPRLWCMTKPPSRRPKLYIVNLQWTPKDDWAALKLHGKCDDVMQLLMNELGLEIPVYNRWQDPIFSLATPLRAGEEGSHSRKSLCRSREEAPPGDQSDPLASAPPILGGWFGRGCAKRAKRKKVA
# Target: T1, acetylated p53 peptides (p53-382/diAc), …
Protein,deacetylation of p53 peptides in vitro (fluorometric deacetylation assay),deacetylation of acetylated p53 peptides in vitro (fluorometric deacetylation assay)
B1,Sirt7 and Sirt1 deacetylate p53 peptides in vitro,
B2,Sirt7 and Sirt1 deacetylate p53 peptides in vitro,p53 acetylated peptides were efficiently deacetylated by Sirt7 in vitro
